Reference: publication PMC4849472 (Cell Discovery, 2016)
Values belong to the binder of their own block, whether it stands above or below them.

Legend:
Details in all cases: both partners purified
Hsp90 [1] = target: T1, Hsp90 (human, UniProt P07900 1-732); assay: native MS; (Hsp70)2, GR, Hop and (Hsp90)2 all at 0.5 μM with Hsp40 and excess ATP; then an equimolar ratio of FKBP52 added to the formed complex
Hsp90 [2] = target: T1, Hsp90; assay: native MS; Hsp90_(2) 1 μM with 2 μM of both FKBP51 and FKBP52
Hsp90 [3] = target: T1, Hsp90; assay: native MS; as a12 (Hsp90/Hsp70/Hop/GR/Hsp40/p23/FKBP51), then challenged with excess FKBP52
Hsp90 [4] = target: T1, Hsp90; assay: native MS; competition: Hsp90_(2) with Hop, FKBP51 and FKBP52, all at equimolar concentration (3 μM)
Hsp90 [5] = target: T1, Hsp90; assay: native MS; Hsp90_(2) 3 μM with FKBP51 and FKBP52 in twofold molar excess (6 μM), the highest concentrations studied
[6] = target: client-transfer complex (Hsp90)2(Hop)1(Hsp70)2(GR)1 (human, UniProt P07900 1-732; P31948 1-543; P0DMV8 1-641; P04150 521-777, F602S); assay: native MS; (Hsp70)2, GR, Hop and (Hsp90)2 all at 0.5 μM with Hsp40 and excess ATP; then an equimolar ratio of FKBP52 added to the formed complex
Hsp90 [7] = target: T1, Hsp90; assay: native MS; as a8, then stoichiometric p23 added (300 μM ATP magnesium acetate, a further 15 min)
Hsp90 [8] = target: T1, Hsp90; assay: native MS; p23 added to the client-transfer complex without immunophilin, with ATP; MS/MS (collision-induced dissociation) of the isolated 32+ charge state of (Hsp90)2(p23)2(GR)1

- stoichiometry N (Hsp90 [1]): 1 per Hsp90 dimer
B1: glucocorticoid receptor ligand-binding domain (residues 521-777, F602S) (domain or fragment, human, UniProt P04150 521-777, looked up)
chain: VPATLPQLTPTLVSLLEVIEPEVLYAGYDSSVPDSTWRIMTTLNMLGGRQVIAAVKWAKAIPGFRNLHLDDQMTLLQYSWMSLMAFALGWRSYRQSSANLLCFAPDLIINEQRMTLPCMYDQCKHMLYVSSELHRLQVSYEEYLCMKTLLLLSSVPKDGLKSQELFDEIRMTYIKELGKAIVKREGNSSQNWQRFYQLTKLLDSMHEVVENLLNYCFQTFLDKTMSIEFPEMLAEIITNQIPKYSNGNIKKLLFHQK
notes: Used without ligand; also called GR; source: provided by Sophie Jackson and David Agard's labs; expressed and purified as previously described [33]

- stoichiometry N (Hsp90 [2]): ≤ 2 per Hsp90 dimer
- stoichiometry N (Hsp90 [3]): 1 per Hsp90 monomer
- stoichiometry N (Hsp90 [4]): 1 per Hsp90 dimer
- stoichiometry N (Hsp90 [5]): ≤ 2 per Hsp90 monomer
- stoichiometry N [6]: 1 per client-transfer complex
B2: FKBP52 (natural protein, human, UniProt Q02790 1-459, looked up)
chain: MTAEEMKATESGAQSAPLPMEGVDISPKQDEGVLKVIKREGTGTEMPMIGDRVFVHYTGWLLDGTKFDSSLDRKDKFSFDLGKGEVIKAWDIAIATMKVGEVCHITCKPEYAYGSAGSPPKIPPNATLVFEVELFEFKGEDLTEEEDGGIIRRIQTRGEGYAKPNEGAIVEVALEGYYKDKLFDQRELRFEIGEGENLDLPYGLERAIQRMEKGEHSIVYLKPSYAFGSVGKEKFQIPPNAELKYELHLKSFEKAKESWEMNSEEKLEQSTIVKERGTVYFKEGKYKQALLQYKKIVSWLEYESSFSNEEAQKAQALRLASHLNLAMCHLKLQAFSAAIESCNKALELDSNNEKGLFRRGEAHLAVNDFELARADFQKVLQLYPNNKAAKTQLAVCQQRIRRQLAREKKLYANMFERLAEEENKAKAEASSGDHPTDTEMKEEQKSNTAGSQSQVETEA
notes: FKBP52, human immunophilin; The cited PDB entries hold overlapping segments of FKBP52, not the construct used here; source: provided by Sophie Jackson and David Agard's labs; expressed and purified as previously described [33]

- stoichiometry N (Hsp90 [7]): 1 per Hsp90 dimer
- stoichiometry N (Hsp90 [8]): 2 per Hsp90 dimer
B3: p23 (natural protein, human, UniProt Q15185 1-160, looked up)
chain: MQPASAKWYDRRDYVFIEFCVEDSKDVNVNFEKSKLTFSCLGGSDNFKHLNEIDLFHCIDPNDSKHKRTDRSILCCLRKGESGQSWPRLTKERAKLNWLSVDFNNWKDWEDDSDEDMSNFDRFSEMMNNMGGDEDVDLPEVDGADDDSQDSDDEKMPDLE
notes: p23 co-chaperone, human; source: provided by Sophie Jackson and David Agard's labs; expressed and purified as previously described [33]
